From patent US20230322935A1 (published 2023) come the findings set out here.

For test [1], the target named is T1, Human CD93 on the cell surface (human CD93 expressing CHO cells; HUVEC, U937 and KG1a cells) (human, UniProt Q9NPY3 22-652).
T1 chain: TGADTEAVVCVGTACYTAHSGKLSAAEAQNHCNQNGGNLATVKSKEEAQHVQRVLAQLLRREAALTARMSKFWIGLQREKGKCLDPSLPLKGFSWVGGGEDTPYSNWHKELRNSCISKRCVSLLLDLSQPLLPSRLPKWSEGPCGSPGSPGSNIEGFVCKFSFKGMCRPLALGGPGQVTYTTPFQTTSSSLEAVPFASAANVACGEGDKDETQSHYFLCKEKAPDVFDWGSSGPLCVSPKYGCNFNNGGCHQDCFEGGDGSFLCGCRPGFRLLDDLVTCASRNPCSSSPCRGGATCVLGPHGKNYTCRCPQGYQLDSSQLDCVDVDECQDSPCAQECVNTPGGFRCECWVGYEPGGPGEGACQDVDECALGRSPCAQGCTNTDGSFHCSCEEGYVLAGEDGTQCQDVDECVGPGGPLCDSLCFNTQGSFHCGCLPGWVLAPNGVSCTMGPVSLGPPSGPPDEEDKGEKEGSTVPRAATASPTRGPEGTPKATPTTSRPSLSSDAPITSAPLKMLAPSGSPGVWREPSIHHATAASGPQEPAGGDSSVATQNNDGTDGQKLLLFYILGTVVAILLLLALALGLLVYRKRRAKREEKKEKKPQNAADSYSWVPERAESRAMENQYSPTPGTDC
Put plainly: FACS blocking of hIGFBP7-His binding; HUVEC cells.

Test [2] deals with T1, Human CD93 on the cell surface (human …). In words: FACS blocking of MMRN2 binding; FIG. 45.

As usually defined, the IC50 is the concentration that inhibits the measured activity by half. Low readings indicate greater potency, high ones weaker potency.

B1: h7F3 (humanized 7F3, VH3+VL3) (antibody, V domains shown)
VH: QVQLVQSGAEVKKPGASVKVSCKASGYTFTDYEMHWVRQAPGQGLEWMGGIDPETGDTAYNQNFKGRVTMTTDTSTSTAYMELRSLTSDDTAVYYCTNYGNLYYYAMDYWGQGTSVTVSS
VL: EIVLTQSPSSLSASVGDRVTITCRASSSVSSSYLHWYQQKPGKAPKLLIYSTSNLAFGVPSRFSGSGSGTSYTFTISSLQPEDIATYYCQQYSGYPLTFGSGTKLEIK
In test [1], B1 registered an IC50 of 1 nM.

B2: h16E4 (humanized 16E4, VH4+VL6) (antibody, V domains shown)
VH: QVQLVQSGAEVKKPGASVKVSCKASGYTFTSYWMHWVRQAPGQGLEWMGEIDPSASYTYYNQKFKGRVTMTRDKSSSTVYMELSSLTSEDSAVYYCARSVYYGNKYFDVWGAGTTVTVSS
VL: DIQMTQSPSTLSASVGDRVTITCKASQSVDYAGDSYMNWYQQKPGKAPKLLIYAASNLESGVPSRFSGSGSGTEFTLTISSLQPDDFATYYCQQTNEDPRTFGGGTKLEIK
As to B2, the half-inhibitory concentration (IC50) in test [2] came out at 225 nM.
